# Test results: PMC3799952 (Biochemistry, 2013)
# Biological target: the molecule itself
# Test: native gel or EMSA
row,Protein,stoichiometry N
1,"amino terminus-truncated recombinant human aromatase, wild type (enzyme) MAKKTSSKGRNYEGTSSIPGPGYCMGIGPLISHGRFLWMGIGSACNYYNRVYGEFMRVWISGEETLIISKSSSMFHIMKHNHYSSRFGSKLGLQCIGMHEKGIIFNNNPELWKTTRPFFMKALSGPGLVRMVTVCAESLKTHLDRLEEVTNESGYVDVLTLLRRVMLDTSNTLFLRIPLDESAIVVKIQGYFDAWQALLIKPDIFFKISWLYKKYEKSVKDLKDAIEVLIAEKRRRISTEEKLEECMDFATELILAEKRGDLTRENVNQCILEMLIAAPDTMSVSLFFMLFLIAKHPNVEEAIIKEIQTVIGERDIKIDDIQKLKVMENFIYESMRYQPVVDLVMRKALEDDVIDGYPVKKGTNIILNIGRMHRLEFFPKPNEFTLENFAKNVPYRYFQPFGFGPRGCAGKYIAMVMMKAILVTLLRRFHVKTLQGQCVESIQKIHDLSLHPDETKNMLEMIFTPRNSDRCLEH",5
2,"rArom E181A (enzyme, human) MAKKTSSKGRNYEGTSSIPGPGYCMGIGPLISHGRFLWMGIGSACNYYNRVYGEFMRVWISGEETLIISKSSSMFHIMKHNHYSSRFGSKLGLQCIGMHEKGIIFNNNPELWKTTRPFFMKALSGPGLVRMVTVCAESLKTHLDRLEEVTNASGYVDVLTLLRRVMLDTSNTLFLRIPLDESAIVVKIQGYFDAWQALLIKPDIFFKISWLYKKYEKSVKDLKDAIEVLIAEKRRRISTEEKLEECMDFATELILAEKRGDLTRENVNQCILEMLIAAPDTMSVSLFFMLFLIAKHPNVEEAIIKEIQTVIGERDIKIDDIQKLKVMENFIYESMRYQPVVDLVMRKALEDDVIDGYPVKKGTNIILNIGRMHRLEFFPKPNEFTLENFAKNVPYRYFQPFGFGPRGCAGKYIAMVMMKAILVTLLRRFHVKTLQGQCVESIQKIHDLSLHPDETKNMLEMIFTPRNSDRCLEH",2
3,"rArom E181K (enzyme, human) MAKKTSSKGRNYEGTSSIPGPGYCMGIGPLISHGRFLWMGIGSACNYYNRVYGEFMRVWISGEETLIISKSSSMFHIMKHNHYSSRFGSKLGLQCIGMHEKGIIFNNNPELWKTTRPFFMKALSGPGLVRMVTVCAESLKTHLDRLEEVTNKSGYVDVLTLLRRVMLDTSNTLFLRIPLDESAIVVKIQGYFDAWQALLIKPDIFFKISWLYKKYEKSVKDLKDAIEVLIAEKRRRISTEEKLEECMDFATELILAEKRGDLTRENVNQCILEMLIAAPDTMSVSLFFMLFLIAKHPNVEEAIIKEIQTVIGERDIKIDDIQKLKVMENFIYESMRYQPVVDLVMRKALEDDVIDGYPVKKGTNIILNIGRMHRLEFFPKPNEFTLENFAKNVPYRYFQPFGFGPRGCAGKYIAMVMMKAILVTLLRRFHVKTLQGQCVESIQKIHDLSLHPDETKNMLEMIFTPRNSDRCLEH",2
